Measurements published in publication PMC11633186.

Target: VisAG5 (S. gordonii VisA region containing its 7 G5 domains, residues 138-698, C-terminal His-tag) (Streptococcus gordonii DL1)
Assay: SDS-PAGE and western blot against the His-tag (denaturing); purified VisAG5 in Laemmli buffer with 2.5% betamercaptoethanol; size of the band

stoichiometry N: 2
Substance: VisAG5 (S. gordonii VisA region containing its 7 G5 domains, residues 138-698, C-terminal His-tag) (domain or fragment)
